In the test the target is GST-CTD substrate (human).

For “CDK12^715–1052/CycK^11–267 complex (from UniProt Q9NYV4 715-1052; O75909 11-267)”, the KmCTD from in vitro kinase assay (32P-GST-CTD product) against varying concentrations of GST-CTD substrate was found to be 2 µM.

Take “full length CDK12/CycK1 complex (from UniProt Q9NYV4-1 1-1490; O75909 1-580)”: the KmCTD from in vitro kinase assay (32P-GST-CTD product) against varying concentrations of GST-CTD substrate, 10 μM ATP, 15 min was determined as 0.3 µM.
